Test results: PMC5789952 (Proceedings of the National Academy of Sciences of the …, 2017)
Blank lines part the entries; values can stand above or below the binder they belong to.

Assays:
STAT2_(133–679) V171E = target: T1, STAT2_(133–679) V171E (mouse, UniProt Q9WVL2 133-679, V171E); assay: ITC
T1 sequence (looked up): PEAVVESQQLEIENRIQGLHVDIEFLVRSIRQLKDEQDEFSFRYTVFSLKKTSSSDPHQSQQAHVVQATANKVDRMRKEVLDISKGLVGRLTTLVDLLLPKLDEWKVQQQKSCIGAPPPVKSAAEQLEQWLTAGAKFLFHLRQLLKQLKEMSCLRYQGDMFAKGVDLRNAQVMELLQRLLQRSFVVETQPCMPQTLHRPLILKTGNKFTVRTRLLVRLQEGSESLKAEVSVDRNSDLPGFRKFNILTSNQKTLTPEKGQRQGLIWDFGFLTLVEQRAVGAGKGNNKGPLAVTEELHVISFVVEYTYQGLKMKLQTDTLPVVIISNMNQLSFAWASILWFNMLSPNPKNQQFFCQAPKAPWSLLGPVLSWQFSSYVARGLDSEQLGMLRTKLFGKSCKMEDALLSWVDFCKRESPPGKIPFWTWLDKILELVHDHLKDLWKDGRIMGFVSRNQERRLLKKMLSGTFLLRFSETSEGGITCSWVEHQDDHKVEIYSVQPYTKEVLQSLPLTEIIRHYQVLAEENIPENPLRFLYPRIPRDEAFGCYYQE

STAT1_(136–713) = target: T2, STAT1_(136–713) (mouse, UniProt P42225 136-713); assay: ITC
T2 sequence (looked up): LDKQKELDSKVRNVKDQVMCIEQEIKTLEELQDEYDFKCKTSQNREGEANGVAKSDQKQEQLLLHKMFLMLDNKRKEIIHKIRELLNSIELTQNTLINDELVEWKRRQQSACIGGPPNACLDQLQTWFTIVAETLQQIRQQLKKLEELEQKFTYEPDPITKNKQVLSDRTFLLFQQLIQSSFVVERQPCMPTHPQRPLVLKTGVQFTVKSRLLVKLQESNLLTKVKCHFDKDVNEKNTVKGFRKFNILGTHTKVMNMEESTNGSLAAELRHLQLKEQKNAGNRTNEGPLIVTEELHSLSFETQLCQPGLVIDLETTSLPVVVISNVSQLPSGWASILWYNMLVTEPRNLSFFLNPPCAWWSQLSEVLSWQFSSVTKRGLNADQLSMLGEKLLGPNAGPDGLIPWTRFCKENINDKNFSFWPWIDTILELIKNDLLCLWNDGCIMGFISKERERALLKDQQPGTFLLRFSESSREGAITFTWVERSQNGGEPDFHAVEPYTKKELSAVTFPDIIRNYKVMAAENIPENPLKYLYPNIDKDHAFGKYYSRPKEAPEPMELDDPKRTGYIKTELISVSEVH

STAT1_(136–713) E169V = target: T3, STAT1_(136–713) E169V (mouse, UniProt P42225 136-713, E169V); assay: ITC
T3 sequence (looked up): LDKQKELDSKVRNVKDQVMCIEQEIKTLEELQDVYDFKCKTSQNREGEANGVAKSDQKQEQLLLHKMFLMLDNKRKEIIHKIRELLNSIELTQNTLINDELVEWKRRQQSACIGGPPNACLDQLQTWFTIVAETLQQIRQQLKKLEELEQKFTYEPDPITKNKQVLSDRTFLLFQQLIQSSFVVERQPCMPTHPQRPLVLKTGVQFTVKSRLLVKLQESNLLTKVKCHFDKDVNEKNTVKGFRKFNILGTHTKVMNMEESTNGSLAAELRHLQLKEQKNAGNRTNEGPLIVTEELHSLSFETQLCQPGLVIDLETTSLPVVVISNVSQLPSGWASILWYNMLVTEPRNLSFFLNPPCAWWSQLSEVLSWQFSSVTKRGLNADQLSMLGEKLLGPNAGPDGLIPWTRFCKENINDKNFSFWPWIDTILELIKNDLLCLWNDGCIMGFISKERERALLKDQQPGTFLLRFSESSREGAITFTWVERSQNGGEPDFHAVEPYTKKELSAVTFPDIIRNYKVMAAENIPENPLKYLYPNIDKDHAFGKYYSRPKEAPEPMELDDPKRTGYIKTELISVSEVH

STAT2_(133–679) = target: T4, STAT2_(133–679) (mouse, UniProt Q9WVL2 133-679); assay: ITC
T4 sequence (looked up): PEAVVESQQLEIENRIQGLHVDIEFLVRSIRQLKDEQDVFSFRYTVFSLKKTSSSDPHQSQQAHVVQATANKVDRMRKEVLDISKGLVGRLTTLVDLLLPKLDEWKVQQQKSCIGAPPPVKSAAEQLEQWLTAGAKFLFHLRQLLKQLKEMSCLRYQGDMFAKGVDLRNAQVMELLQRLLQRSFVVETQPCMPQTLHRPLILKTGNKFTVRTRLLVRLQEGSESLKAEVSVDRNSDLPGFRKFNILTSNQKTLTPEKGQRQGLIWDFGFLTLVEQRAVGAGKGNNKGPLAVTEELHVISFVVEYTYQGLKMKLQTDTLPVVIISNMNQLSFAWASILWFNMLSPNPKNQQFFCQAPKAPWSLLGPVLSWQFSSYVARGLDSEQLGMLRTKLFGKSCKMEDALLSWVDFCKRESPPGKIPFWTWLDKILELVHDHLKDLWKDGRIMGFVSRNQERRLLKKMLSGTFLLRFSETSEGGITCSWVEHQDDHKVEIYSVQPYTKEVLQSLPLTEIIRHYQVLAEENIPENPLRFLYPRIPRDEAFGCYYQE

STAT2_(133–738) = target: T5, STAT2_(133–738) (mouse, UniProt Q9WVL2 133-738); assay: SEC
T5 sequence (looked up): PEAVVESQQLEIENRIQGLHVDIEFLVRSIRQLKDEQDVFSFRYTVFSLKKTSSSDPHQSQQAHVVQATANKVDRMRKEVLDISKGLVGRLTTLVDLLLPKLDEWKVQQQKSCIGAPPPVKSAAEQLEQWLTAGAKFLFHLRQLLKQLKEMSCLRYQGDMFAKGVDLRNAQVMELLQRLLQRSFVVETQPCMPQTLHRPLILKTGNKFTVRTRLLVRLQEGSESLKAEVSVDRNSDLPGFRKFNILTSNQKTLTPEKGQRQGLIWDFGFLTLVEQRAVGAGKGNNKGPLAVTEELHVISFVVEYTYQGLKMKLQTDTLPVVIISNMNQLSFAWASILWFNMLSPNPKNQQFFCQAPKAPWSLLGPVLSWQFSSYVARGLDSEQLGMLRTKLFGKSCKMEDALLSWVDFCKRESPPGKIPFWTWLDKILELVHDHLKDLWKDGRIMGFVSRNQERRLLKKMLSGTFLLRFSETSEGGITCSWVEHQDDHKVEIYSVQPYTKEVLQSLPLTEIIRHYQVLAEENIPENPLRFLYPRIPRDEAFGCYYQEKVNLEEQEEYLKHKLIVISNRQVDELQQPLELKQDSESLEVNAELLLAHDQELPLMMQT

[1] = target: T6, IRF9–IAD_(182–385) E347A E348A (crystallised form in the complex) (mouse, UniProt Q61179 182-385, E347A | E348A); assay: crystal structure
T6 sequence (looked up): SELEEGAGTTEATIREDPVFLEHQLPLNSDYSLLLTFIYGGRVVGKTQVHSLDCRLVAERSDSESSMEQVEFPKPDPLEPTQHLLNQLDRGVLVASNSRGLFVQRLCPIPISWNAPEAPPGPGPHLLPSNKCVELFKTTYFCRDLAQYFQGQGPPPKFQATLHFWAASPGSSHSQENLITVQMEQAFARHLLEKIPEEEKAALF

B1: IRF9–IAD_(182–385) (domain or fragment, mouse, UniProt Q61179 182-385, looked up)
chain: SELEEGAGTTEATIREDPVFLEHQLPLNSDYSLLLTFIYGGRVVGKTQVHSLDCRLVAERSDSESSMEQVEFPKPDPLEPTQHLLNQLDRGVLVASNSRGLFVQRLCPIPISWNAPEAPPGPGPHLLPSNKCVELFKTTYFCRDLAQYFQGQGPPPKFQATLHFWEESPGSSHSQENLITVQMEQAFARHLLEKIPEEEKAALF
Kd (STAT2_(133–679) V171E): 2500 nM
Kd (STAT1_(136–713)): 5000 nM
Kd (STAT1_(136–713) E169V): 116 nM
Kd (STAT2_(133–679)): 10 nM

B3: IRF9–IAD IF2 (R324E, D325K, Q331E, Q333E, P335S) (domain or fragment, mouse, UniProt Q61179 182-385, looked up)
chain: SELEEGAGTTEATIREDPVFLEHQLPLNSDYSLLLTFIYGGRVVGKTQVHSLDCRLVAERSDSESSMEQVEFPKPDPLEPTQHLLNQLDRGVLVASNSRGLFVQRLCPIPISWNAPEAPPGPGPHLLPSNKCVELFKTTYFCEKLAQYFEGEGSPPKFQATLHFWEESPGSSHSQENLITVQMEQAFARHLLEKIPEEEKAALF
Kd (STAT2_(133–679)): 11 nM

B4: full-length IRF9 (IRF9FL) (natural protein, mouse, UniProt Q61179 1-399, looked up)
chain: MASGKVRCTRKLRSWIVEQVESGHFPGVCWDDAAKTMFRIPWKHAGKQDFREDQDAAIFKAWALFKEKHKDGDIGHPAVWKTRLRCALNKSSEFEEVPERGRMDVAEPYKVYRILPAGTLPNQPRNQKSPCKRSISCVSPEREENMENGRTNGVVNHSDSGSNIGGGGNGSNRSDSNSNCNSELEEGAGTTEATIREDPVFLEHQLPLNSDYSLLLTFIYGGRVVGKTQVHSLDCRLVAERSDSESSMEQVEFPKPDPLEPTQHLLNQLDRGVLVASNSRGLFVQRLCPIPISWNAPEAPPGPGPHLLPSNKCVELFKTTYFCRDLAQYFQGQGPPPKFQATLHFWEESPGSSHSQENLITVQMEQAFARHLLEKIPEEEKAALFLLQHTEQSPSALGH
binding result (STAT2_(133–738)): binds

Other lines, results leading:

Kd (STAT2_(133–679)): 17 nM
B2: IRF9–IAD IF3 (L326A, F330A, I376A) (domain or fragment, mouse, UniProt Q61179 182-385, looked up)
chain: SELEEGAGTTEATIREDPVFLEHQLPLNSDYSLLLTFIYGGRVVGKTQVHSLDCRLVAERSDSESSMEQVEFPKPDPLEPTQHLLNQLDRGVLVASNSRGLFVQRLCPIPISWNAPEAPPGPGPHLLPSNKCVELFKTTYFCRDAAQYAQGQGPPPKFQATLHFWEESPGSSHSQENLITVQMEQAFARHLLEKAPEEEKAALF

binding result [1]: binds
B5: STAT2–CCD_(133–315) Q242A K243A (crystallised form) (domain or fragment, mouse, UniProt Q9WVL2 133-315, looked up)
chain: PEAVVESQQLEIENRIQGLHVDIEFLVRSIRQLKDEQDVFSFRYTVFSLKKTSSSDPHQSQQAHVVQATANKVDRMRKEVLDISKGLVGRLTTLVDLLLPKLDEWKVQQAASCIGAPPPVKSAAEQLEQWLTAGAKFLFHLRQLLKQLKEMSCLRYQGDMFAKGVDLRNAQVMELLQRLLQRS
